Test results taken from the domain aggregation screens of Martell et al. (2025).

test: soluble fraction after stress (log2 fold change); higher = more stays soluble; pooled small domains, quantitative proteomics; settings: stress: 50 degC
In short: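 Each library was heated to 50°C as a stress step. The libraries, made up of small protein domains, were pooled and analysed at high throughput by quantitative proteomics. The reported value is the base-two logarithm of the fold change in each protein's soluble amount after stress, taken as a measure of aggregation propensity. The higher the value, the more protein stays in solution.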

“HMGNEMQVPNVAGKTVDEAIEIFNNMGLKVAAENKYAQSDDVKEGDVVKTDPSSGRNVKKGSEITLYISQG” and “HMEKTKLPNLVDFTYRQAEALLQTHGLKVGKVERVPDVGQTVIKAKYKGKVISWGTELNKGEKIDLVIGKG” are within 0.2 log units of each other in “soluble fraction (log2)” value: 0.0976 for the first, 0.189 for the second.

First: HMRDVVVVPDLSGLTQMEALSKLDAESLNIGEINYGVSEMPEGVIFKQDPVYGTELMKGDTVDIFISGR
Second: HMKLSLKTQVKEYLLSYIRDKKLQPGDRLLTQRELAEMLHTSQKVAQMALNSLEEEGIIIRRLGSGSFLAR
The “soluble fraction (log2)” value of the first is higher: -0.527 for the first, -1.11 for the second.

Compared with “HMAHYPGKVNNELVEFIRSEQRKTPHMTLTGLNRKLQRTYDLTLSESTVRKLVEAETILPLAREPD”, “HMRDGHEQLQGVLSAIKFHQANFLIGVLDDGTTVKGNMLSPQVGLEYTFRGRRERHPRWGEQFAFMDYRV” is lower in “soluble fraction (log2)” value: -0.0739 for the first, -2.76 for the second.

“HMNTGIPHQEVIKKLYSFAEGGDWKGLKEELNRIKEYTLFYNSVKELADSFEINRLIEKLKTYIF” and “HMQEPIAVPDFINKSAVDVLVNPVFTQNFKLVSEDVYDDKVPEGYIVGQSVKSDTLVQPGTEIVIYV” are within 0.2 log units of each other in “soluble fraction (log2)” value: 0.0146 for the first, 0.175 for the second.

Compared with “HMTELKKTAVDTWVKDLGTEQALAKLDTLAVVKLRRLAREYKAFGIAGRAISKADKGMLLAEFRAYYEN”, “HMTMQQGTISRLNHSRGFGFLTTPDGEDLFFHRTNVHETPFARLQVGDRVTYDVQVTPRGTRADKVQLNM” is higher in “soluble fraction (log2)” value: -1.86 for the first, -0.0328 for the second.

“HMTPPAQQPHEGLPTDETATDAKTLVQKSRWWLEEEQRQREAGNTAYAERIRLALIQLLYRAERA” and “HMAELTTVQAADILHVSRPFLIKLLDEGQIPYHRVGKHRRIRMEDVMNYKRAIDQQREAVLDQLVAEA” are within 0.2 log units of each other in “soluble fraction (log2)” value: 0.0784 for the first, -0.0408 for the second.

Going from “HMRHLSVPNRQVEGALDHIRSQGWLAEGMRVFASEDGSARLIPLGPGAPLEMLEPLAKFDVISHEGKPY” to “HMNNTIKFSVDSQNSGKRLDIFLTENIKNYTRSFLKKLIENRQVKLNNNFIISPSERVKFKDQININILQ”, the “soluble fraction (log2)” value falls from -0.0914 to -1.17.

First: HMYYIITNGKYWVIENPIRPGEYMESTKSSNAKQFTFKQAKNLLNARSKKLGWIRNGYSMVGED
Second: HMPVTAQFDFSKVLAGRTLKDGEFSFVLKDKNGTVLQTKTNDASGKVAFDALIYKNNEVGEHKYTVEEVI
The “soluble fraction (log2)” value of the first is lower: -2.22 for the first, 0.208 for the second.

First: HMSDFKDIILKLRNEQGFTQEKLADVLGTSKSTVGMWEMGVRFPSKELYEAIADYFNVDIDYLYGRTDIR
Second: HMKTLLSMNIKNLRKKKNMTLEELAEKVGTSKQTIQRYESGKISNIPSDKIELLAKYLDTTPAKLMGW
The “soluble fraction (log2)” value of the first is lower: -0.966 for the first, 0.441 for the second.

Compared with “HMNTPTLLLYGGKDHSVPEAGIRHLRAHLSANDRGEYRFYPNAPHLLLQSRQWQQVSQDISQWLAMT”, “HMSDAGMNQIGDMFRAPDLMAKLAMNPATREYVSQPDFLAMMEEVKRNPSALNNHLRDPRMMNVLSVAM” is lower in “soluble fraction (log2)” value: 0.141 for the first, -0.115 for the second.

First: HMQNDDLTKLDGIGPYIEQRLNDIGIYNYEQLSKLNTEDIQKITELIDFFPGRIERDNWVSQAQLLKI
Second: HMDENTEQESQTVVVPDVTGKSLSEAASILREAGLDYLAEQTGTVVTKQMPLPDAEVLINTTVLLYTDSE
The “soluble fraction (log2)” value of the first is lower: -0.316 for the first, 0.0118 for the second.

Compared with “HMAGTWQDQGNGQWKYQNDDGSYATGWIEDSGKSYYLDANGIMLANTTTPDGKQVGPDGALIP”, “HMGTTTPPATRKGKVTSSFLNVRSGPSTANAKVAELKQNAVVTIYETSSNGWHRIGVNQWVIGTNIQE” is lower in “soluble fraction (log2)” value: -0.141 for the first, -0.441 for the second.

First: HMQNREQNILDGKSILDKELKRVGLLNQSAAIMAQEMKFNSQDDLFAALGSGATRIGQIINHLQKQS
Second: HMRRLGTTEIAGILRREISQGILIAKERLPSERSLADTYGVARGTVRQALNLLAREGLVQIRRSSGAYVTF
The “soluble fraction (log2)” value of the first is higher: -0.00642 for the first, -0.33 for the second.

First: HMVSLSENQKIVLESLNTAMSARELMEILNLSDISHFRRNILNPLLLEGLIVRTKPDKPKSSKQKYIKANF
Second: HMKRLPMRKIRDVLRLSADGLSTRKIGVSLTIGRTTVQAYLDRAAEVDLSWPLPPEMSDTDLERLIYPR
The “soluble fraction (log2)” value of the first is higher: -1.15 for the first, -3.39 for the second.

Going from “HMLTDAAAVKRSVRNLVQYGFYEKPFHPEIGSGVRDLLFENMTPFVANNLSKQIEEIITNYEPRA” to “HMFANQLLLTRFDLNYIKSDVLSRQIDVLGIPIKKLTIEANNKSIWLQGTSQSLSKVRELIGIIDIRENA”, the “soluble fraction (log2)” value falls from -0.396 to -3.1.

“HMTDSISLTLNGDPRPFRAGATVADLVRDIGLDPAKVAVERNLEIVPRSTLENVHLADGDVLEIVHFV” and “HMSTTHLTASVIKDKVNVRSEADSQNGAIIDKARTGERLLVTDYGNKWTGIVLPDGKRGYIMTEYLQF” are within 0.2 log units of each other in “soluble fraction (log2)” value: 0.0403 for the first, 0.0443 for the second.

Going from “HMGKSPLDALSAREKEVLTYITRGVSINDIAAVLYLSPKTVSTHKTNLMQKLGIENNADLILFGVNHGLND” to “HMRPTHYSGPSVIAMINNRVWFSDGSRLAPGEHHDDLEVVGLSPPWSAKVRWQGVEFDVGLFE”, the “soluble fraction (log2)” value falls from -0.513 to -1.45.

Going from “HMKKVKVPNVVGMSLKEARDALSAVNIAVNQVAGSVEDKSVVTEQSLKAGDEVDEGSSLNLTTEYK” to “HMGTWKKIGTMTATVNDLYVRETPNGYIMGFINKGTVVEVDGKTTGKWTHAKVEGIGVGWIWTGYLDK”, the “soluble fraction (log2)” value falls from -0.156 to -3.47.

Compared with “HMVAGHLQEKKGYFYMVLTYRDHEGKRKSKWLPTGLTIKGNKKRAQDLLQDARKNFVPDIPT”, “HMGPKPVDMSPIPEGQRNQVLHDWMYGRAANHPENWGQIRSDALERGLKSGLKADEIHAITGSVARALGLE” is higher in “soluble fraction (log2)” value: -1.32 for the first, 0.12 for the second.

Going from “HMNPAYTDSRMKTFLEELPVMKASLSQKHVTRFLVWQEYIGRHPDGYGKSQFFYHLKQNLVAAKG” to “HMETKERDEQFLEMIRQNEGIIFKVASFYVDKEHPIGDLYQEVVLNLWKGYPSFRGESKYSTWIYRIALNT”, the “soluble fraction (log2)” value rises from -0.56 to -0.0833.

First: HMENYTYKYATSANVNIREEPNTDSTILGKTLLNTEFQVVEDVDGWSKITTEAGYAYIKSEYLSDTE
Second: HMLGFELVGIRGNNPESTIIILERDDYRLVEQGQNINSSVIFSHIDGSRAYFFDGQTYTFLDI
The “soluble fraction (log2)” value of the first is higher: -0.188 for the first, -2.95 for the second.

Going from “HMRRISLEDWQLIESLIRRDWSPEQISLWLKKYKKIRVSHEWIYQYILKDKSKAGDLHTHLRSR” to “HMRMNASERQNQIVDLLSQNGVMKIMDIADHFNVSRETIRRDLIILEDDNRIKKWFGGVISAN”, the “soluble fraction (log2)” value falls from -0.174 to -0.461.

“HMDNPPDRAEIEQMLKDAGLTPEADAMAALSDLARTLDPGDFRQTLEKITLYKLGDSTPIGLDDIAAGAP” and “HMAASEAESIRILLSEGVDRVHLRKPQSAEADMRRLIEALPPELYPRLTLQDHLHLAGEYGT” are within 0.2 log units of each other in “soluble fraction (log2)” value: -0.0256 for the first, 0.0186 for the second.

First: HMRLDHIFSVVERLKGVSLGAGDRLEVQKYEDLLTVYKSKNALSSEEAQTLNDILASLLKMMAKYD
Second: HMNKSGVVLIRVTVDASGRVTSAAYEPKGSTTSDVELVAEARKAALRTRFTESRTVIEGGVITYIFKL
The “soluble fraction (log2)” value of the first is higher: -0.00461 for the first, -2.28 for the second.

Compared with “HMTHSEYVGRHGIAATSLRPAGAATIDGSRVDVVTSGEYIEKGTPIEVMTVNGSTVRVKAVPQIP”, “HMQEISQEEALATVLKDLSLTEADLKDLQITREEDKYKILFSKGQTAYDVLVSAKDGQLLQSKQETI” is lower in “soluble fraction (log2)” value: 0.0508 for the first, -0.165 for the second.

Compared with “HMNMPHEIDANFISSLGRLIDNHGKNYGDFQIFREMFLDYFPRFDELSSNNKEKINRRLYKFFETLFG”, “HMQLSMLPYGFARRHGVLLVEQDEQPTLIHRAGITATVIAEVQRVAGQIDAWRLVDDARFDQQLAEVYRD” is higher in “soluble fraction (log2)” value: -1.71 for the first, -1.06 for the second.

Compared with “HMFEERKKDWNLTGLLDDVIRRYIHQLTNDELNEINLEKSSGMPDEEIKNGIKLPLAVMQQRRETWGS”, “HMVMETLAERINTALQTKGLSVNALARRVGVSYPAMRKITKGETLNPKFLFEIAEALGVSVEWLKTGEGSP” is lower in “soluble fraction (log2)” value: -0.16 for the first, -0.372 for the second.

First: HMQQQLLHIVFGGELKDVTGIEFEDLSKMDFVGAFSNYKDAYDAWKSAAQRTVDHAEMRYFILHAHKLL
Second: HMENTGFKDKKGNYIFDGDIVKDILGNIMKVEFKHFKWQLIPLNKTAFNMPMVDWLDLETETLNAEIIGN
The “soluble fraction (log2)” value of the first is lower: -5.48 for the first, -2.13 for the second.

Going from “HMDLFSAVVHHIVGQQISTKAQATIWKRMRDEFGVVDAAAVLGAGVEKLQSFGMTFRKAEYITDFARKIE” to “HMQRDDMQIDRLIQIVFLLLSRNNLTAKQLAEELGVSTRTIYRDINILSVAGIPITSQKGYGGGLSLLQG”, the “soluble fraction (log2)” value rises from -2.51 to -0.62.

Compared with “HMIGVIVDEVDPDSSLKSGDIITEVNREVILNIDDFVGLVEQIQKTGRSSLLLKILRDKKSLWVTIQFV”, “HMVVKLTQEQDRFIKTFNDKSLAFYYISSWGWGSFLRNGIGGVYEGDKTPFTLDEKEKMLNAIINGYEVI” is lower in “soluble fraction (log2)” value: 0.0885 for the first, -1.82 for the second.

“HMGNHMSFKMWGEQLQEAFRALETYDTQKAKTILNELVRFPIDSDITKALKGIISNIDDMMA” and “HMSQIDLQIGHKIKSKRRKLGISQADMAKKLYISPSYLNLIESGKRKINVDLLLKLSNELGIEMSDIS” are within 0.2 log units of each other in “soluble fraction (log2)” value: -0.535 for the first, -0.478 for the second.

Compared with “HMPTTNIRAFRLREADPESVKEALSMVMPKTSIYVDARTKSVLVVGLLDELARAAEIVALIDQP”, “HMRPHDDHLREQLLGIATETIARTGVEGLSLRTLATDAGTSTSAVYQLFGSRAALLDAVYLRVLE” is lower in “soluble fraction (log2)” value: -0.79 for the first, -1.26 for the second.

Going from “HMVMATPHNTAKAGDIAKTVIMPGDPLRAKYIADNYLDNAVQFNVVRNIYGYTGVYRGTDISVMASGM” to “HMQQKNWIVRDGDGKIYGPFTTEQVLVQIDRGYFVGGEEVALYPGGRWIAISGAPEFYDRLLDALAMEG”, the “soluble fraction (log2)” value falls from 0.128 to -0.402.

Compared with “HMLQADALADPVGWALRTLGFDLEAGTPERSAIQRSFRQSLIEAHPDHGGADDEAAQRIADITEARRILLA”, “HMVPHQPRVWTNTAGKTITAAFVRFNAAGRKVSLKLEKGRQVELPLASLSGNDVDWIKEHVPEAMSNQE” is higher in “soluble fraction (log2)” value: -0.346 for the first, -0.142 for the second.

First: HMTLRDRDQALEELWGQLADVPMDSETERLLEPFMGWGVGVSRDEIWHWFDRRHSKGIGHLLYS
Second: HMYGQEVKVLGLFGDRAFIKVDEKSAVIRIGQSHQNVQLKSISNQKAILLVDNKDIALGLGDSYQSA
The “soluble fraction (log2)” value of the first is lower: -1.55 for the first, -0.244 for the second.

“HMDYINALTTAGITDAKVIVTAPFDVSGTAALTGIYKAYEDITGSSLNEIAKAVGVEELITTGNLA” and “HMTALTTEDLERRFYAKTYEGESAQKRLARLEISVFGELRQGRPESDRLHDLNNAVLEKERAALNAGAVG” are within 0.2 log units of each other in “soluble fraction (log2)” value: 0.0392 for the first, 0.123 for the second.

Going from “HMLQLDATDRALIVATQGGLPLVPRPYQVVGEQLGISGEEVVARLRALLDAGVIRRIGAVPN” to “HMVPQAVQDIKAYLASGALPYIGPATAKKIVAMFGSDALDVIAEHPEQLTAIRGLNEEKANAIHQEFRRQF”, the “soluble fraction (log2)” value rises from -0.283 to -0.0649.

With “HMANYHDIAADLRSKINHGFYEEEKKLPKQSELAADYQTSRVTIQKALNILQMEGIIYGKKGTGTFIRDSY” the “soluble fraction (log2)” value was -0.214.
